According to patent publication US9617326B2, “RTRAIL mutant and monomethyl auristatin E conjugate thereof” (Zhejiang University, priority 2012, dated 2017):
Where two headings read alike, the source gives them in different places.

Tests used:
[1] = tested on: Hela cells; experiment: In vitro anti-tumor activity (CCK-8 killing) on Hela cells; type: cell-based; conditions: Hela (TRAIL insensitive type), 32-1000 ng/mL, both low and high concentrations, 96 hours, FIG. 6
Text: (§1) 4 types of cells were selected to measure in vitro anti-tumor activity of the rTRAIL mutant and the MMAE conjugate: TRAIL sensitive type (NCI-H460), TRAIL insensitive type (Hela), TRAIL resistant type (MCF-7) and normal cells (HEK293). All of these 4 types of cells had TRAIL death receptor on their surfaces.
(§2) Hereinafter, TRAIL sensitive type NCI-H460 cell was taken as an example to give detailed description of the test procedure, including the following steps:
(§3) (1) Digesting the NCI-H460 cells into individual cells, followed by diluting to 1×10^4 cells/mL, spreading the cells on 96-well plate (100 μL for each well), and culturing the cells for 24 hours under normal condition.
(§4) (2) Diluting N109C, N109C-vcMMAE and S96C-vcMMAE with culture medium respectively, and adding them into the cell plate with final concentrations of 32, 63, 125, 250, 500, 1000 ng/mL for serving as the test groups, while using standard TRAIL (114-281) as the positive control group, using the buffer (used for dissolving the test sample, diluted with the culture medium in a same manner) as the negative control group, and using the culture medium (without adding any solution) as the blank control group. All the control groups and test groups were tested in triplicate. […]

[2] = tested on: NCI-H460 tumor-bearing mice; conditions: athymic mice with NCI-H460 tumor; for distribution of fluorescence in mice: about 50 μg Cy5-labeled conjugate via tail vein
Experimental: N109C-vcMMAE was taken as an example, and the conjugate was tracked in real-time in mice by Fluorescent labeling method to observe tumor targeting ability of the conjugate.
Athymic mice weighing 20 g were selected and 10^7 NCI-H460 cells were injected subcutaneously in the armpit of one side of the forelegs.
Cy5, as a Near-IR-activated dye, was used as a fluorescent label, so as to facilitate the fluorescence to pass through animal skin and achieve the goal of real time vital observation. In terms of concrete method of Cy5 labeling, please refer to the instruction offered by the manufacturer (Lumiprobe).
200 μL sample containing about 50 μg Cy5-labeled conjugate was injected into the tumor-bearing mice via tail vein, while equal amount of normal saline was injected into the blank control group.
Small living animal imager (NightOWLN320) was used to observe distribution of fluorescence in mice every 24 hours. […] The mice were killed after 4th day, and heart, liver, spleen, lung, kidney and tumor tissues were isolated. […] The white arrow indicates tumor site.

[3] = tested on: MCF-7 cells; experiment: In vitro anti-tumor activity (CCK-8 killing) on MCF-7 cells; type: cell-based; conditions: MCF-7 (TRAIL resistant type), 32-1000 ng/mL, both low and high concentrations, 96 hours, FIG. 6
Text: as §1, §2, §3, §4

[4] = tested on: NCI-H460 cells; experiment: Cell endocytosis of the conjugate by tumor cells (laser confocal); type: cell-based; conditions: 1 μg/mL
Experimental: NCI-H460 cells were taken as an example to observe behaviors of rTRAIL mutant-vcMMAE conjugate in tumor cells by laser confocal technology, including the following steps:
a) A coverslip was immersed with 1M HCl and 70% ethanol, subjected to ultrasonic treatment for 30 min, washed for 5-6 times with double distilled water and sterilized for later use;
b) Well-sterilized coverslip was placed in 24-well plate, and cells were plated at 10^4 cells/well and cultured overnight at 37° C.;
c) Administration: N109C-vcMMAE and S96C-vcMMAE were diluted respectively to a final concentration of 1 μg/mL, and the cells were treated according to step d) at different time points (1st, 4th, 8th and 12th hour), while drug-free culture medium was used for the blank control group; d) The coverslip was washed with cold PBS for 3 times and then fixed with 4% paraformaldehyde for 10 min at room temperature; e) PBS was used to wash the coverslip for another 3 times; f) 0.1% Triton X-100 was added to permeabilize for 10 min at room temperature; g) 2% BSA was added to block for 30 min after 3 times washing with PBS; h) Primary antibody incubation: rabbit anti-human rTRAIL polyclonal antibody was diluted with 1% BSA/PBS to 1 μg/mL and incubated for 45 min at room temperature; i) Secondary antibody incubation: FITC-labeled goat anti-rabbit secondary antibody was diluted 500-fold with 1% BSA/PBS and incubated for 45 min at room temperature; j) Staining cell nucleus with DAPI: after PBS washing (3 times), DAPI diluted 1000-fold with PBS was added dropwise on each coverslip (it was appropriate to just cover the cells), and the coverslip was incubated for about 2 min at 25° C.; k) Mounting: after PBS washing, one drop of Anti-fade Fluorescence Mounting Medium was added on the coverslip, then the coverslip was placed upside down on a glass slide and then sealed with nail polish around the coverslip; l) Cofocal detection: the detection result was shown in FIG. 8.

B1: N109C-vcMMAE: rTRAIL N109C mutant trimer coupled via maleimide-modified valine-citrulline linker to 1-3 MMAE molecules (conjugate)
chain: TSEETISTVQEKQQCISPLVRERGPQRVAAHITGTRGRSNTLSSPNSKNEKALGRKINSWESSRSGHSFLSNLHLRNGELVIHEKGFYYIYSQTYFRFQEEIKENTKNDKQMVQYIYKYTSYPDPILLMKSARNSCWSKDAEYGLYSIYQGGIFELKENDRIFVSVTNEHLIDMDHEASFFGAFLVG
modifications: non-natural residues
notes: rTRAIL N109C mutant trimer coupled via maleimide-modified valine-citrulline linker to 1-3 MMAE molecules
killing ability [1]: stronger killing ability than S96C-vcMMAE
distribution of fluorescence in mice ([2]; 3rd day): most of the fluorescence had gathered on tumor site
distribution of fluorescence in mice ([2]; 4th day): only the tumor site emitted fluorescence
tumor-targeting effect ([2]; in vivo imaging over 4 days and isolated tissues): excellent tumor-targeting effect
killing ability [3]: stronger killing ability than S96C-vcMMAE
endocytosis by tumor cells (confocal) ([4]; 1 hour after administration): a lot of N109C-vcMMAE had entered the cells
endocytosis by tumor cells (confocal) ([4]; 4 hours): more and more N109C-vcMMAE entered the cells and began to aggregate slowly
endocytosis by tumor cells (confocal) ([4]; 8 hours): more aggregating points emerging inside the cells
endocytosis by tumor cells and apoptosis (confocal) ([4]; 12 hours): aggregating points inside the cells decreased gradually and cell apoptosis began to occur
